Laboratory results taken from US20190256843A1 (AGILENT TECHNOLOGIES, published 2019).

Target: T1, negative control phosphoprotein AGPADAPAGAVVGGG[S^P/S]PRGRPGPVPAPGLLA fused to N-terminal split mCherry (central residue (position 16 of SEQ ID NO:59) printed as [S^P/S]: phosphoserine with SepOTSλ, serine with tRNA^supD)
T1 construct: also called n.c; (14-3-3 experiment); negative control for the 14-3-3 experiment; not shown: N-terminal split mCherry and linker
T1 chain: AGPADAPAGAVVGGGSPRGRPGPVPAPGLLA
Assay: clonal BiFC split mCherry (negative control of the 14-3-3 experiment)

B1: human 14-3-3β fused to C-terminal split mCherry (C-mCh) with C-terminal 6xHis tag (other)
chain: MTMDKSELVQKAKLAEQAERYDDMAAAMKAVTEQGHELSNEERNLLSVAYKNVVGARRSSWRVISSIEQKTERNEKKQQMGKEYREKIEAELQDICNDVLELLDKYLIPNATQPESKVFYLKMKGDYFRYLSEVASGDNKQTTVSNSQQAYQEAFEISKKEMQPTHPIRLGLALNFSVFYYEILNSPEKACSLAKTAFDEAIAELDTLNEESYKDSTLIMQLLRDNLTLWTSENQGDEGDAGEGENELGAAAGGSGGALKGEIKQRLKLKDGGHYDAEVKTTYKAKKPVQLPGAYNVNIKLDITSHNEDYTIVEQYERAEGRHSTGGMDELYKHHHHHH
notes: also called 14-3-3 isoform β
- binding result: no binding

B2: human 14-3-3σ fused to C-terminal split mCherry (C-mCh) with C-terminal 6xHis tag (other)
chain: MERASLIQKAKLAEQAERYEDMAAFMKGAVEKGEELSCEERNLLSVAYKNVVGGQRAAWRVLSSIEQKSNEEGSEEKGPEVREYREKVETELQGVCDTVLGLLDSHLIKEAGDAESRVFYLKMKGDYYRYLAEVATGDDKKRIIDSARSAYQEAMDISKKEMPPTNPIRLGLALNFSVFHYEIANSPEEAISLAKTTFDEAMADLHTLSEDSYKDSTLIMQLLRDNLTLWTADNAGEEGGEAPQEPQSELGAAAGGSGGALKGEIKQRLKLKDGGHYDAEVKTTYKAKKPVQLPGAYNVNIKLDITSHNEDYTIVEQYERAEGRHSTGGMDELYKHHHHHH
notes: also called 14-3-3 isoform σ
- binding result: no binding
